Measured values from patent publication US8465981B2, “Polypeptides, systems, and methods useful for detecting glucose” (University of Kentucky Research Foundation, priority 2007, dated 2013).

Experiments:
Type in all cases: binding
[1] = Fragments of wtGBP in response to glucose: fluorescence quenching of labeled tGBPs; conditions: labeled tGBP 1×10^-7 M
Procedure: (§1) Once the PCR amplified gene fragments were obtained, they were inserted into expression vector pQE70. The constructed expression plasmids were then transformed into the auxotrophic strain of E. coli. Protein expression was performed using medium shift method. A single freshly transformed colony was used to inoculate 5 mL of M9 media supplemented with 0.4% glucose; 1 mM MgSO4; 0.1 mM CaCl2; 1 mM Thiamine; 0.1 volume of a solution containing 0.01% (w/v) each of 20 amino acids, less any amino acid that is to be replaced by unnatural amino acids (e.g., each of 19 amino acids where one is to be replaced); 40 μg/mL of the remaining amino acid(s) (e.g., 20th amino acid), and appropriate amount of antibiotic. T his culture was allowed to grow overnight at 37° C., 250 rpm. 500 mL culture containing the same ingredients was inoculated with the overnight grown 5 mL culture. This culture was then grown until the optical density (OD600) was about 0.5. The cells were then centrifuged at 10000 rpm for 10 min, 25° C., the supernatant was discarded and the cells were resuspended in a 0.9% NaCl solution for washing, and this was repeated three times. The cells were then resuspended in 500 mL M9 minimal media which was supplemented with 0.4% glucose, 1 mM MgSO4, 0.1 mM CaCl2, 1 mM Thiamine, 0.1 volume of a solution containing 0.01% (w/v) each of 20 amino acids less any amino acid(s) to be replaced by unnatural amino acids (e.g., 19 amino acids), appropriate amount of antibiotic, and grown at 37° C. for 30 min to further deplete natural amino acid that has to be replaced by the unnatural amino acid. 1 mM IPTG was then added with 0.1 mM of unnatural amino acid to the culture and was grown overnight at 37° C. The cells were harvested by centrifugation and the protein was purified using Ni-NTA resin since GBP mutant has His-tag. The purified protein was then labeled with fluorophore MDCC (N-[2-(1-maleimidyl(ethyl]-7-(diethylamino)coumarin-3-carboxamide), e.g., labeled at cysteine-152 of SEQ ID NO: 1.
Fragments of wtGBP in Response to Glucose. In order to check for activity of the labeled tGBPs, an assay was performed. Upon glucose binding, the proteins should undergo a conformational change, resulting in a change in the local environment of the fluorophore molecule, which leads to a change in the fluorescence signal observed. The assay was carried out by preparing glucose solutions of concentrations ranging from 1×10^−1M to 1×10^−6M. These glucose standards were then added to 180 μL samples of the labeled tGBPs at a concentration of 1×10^−7M. The resulting fluorescence intensity was measured. The results obtained from one study including the isolated polypeptide molecules of SEQ ID NO: 2 (tGBP1) and SEQ ID NO: 3 (tGBP2) are presented in Table C.

[2] = Unnatural analogues of wtGBP in response to glucose: fluorescence dose response; conditions: labeled protein 5×10^-7 M, glucose 10^-2 M-10^-8 M, 15 min, room temperature
Source text: Unnatural Analogues of wtGBP with Unnatural Tryptophans. Unnatural analogues of wtGBP from E. coli were produced, where natural tryptophans were replaced with unnatural tryptophans. Tryptophan auxotrophic strain of E. coli (#27873) was obtained. Plasmid placI and plasmid pQE70 containing the genetic sequence of the wtGBP mutated at 152 (containing a cysteine in this position for fluorophore attachment) were transformed into the tryptophan auxotrophic strain of E. coli. Protein expression was performed using medium shift method. A single freshly transformed colony was used to inoculate 5 mL of M9 media supplemented with 0.4% glucose, 1 mM MgSO4, 0.1 mM CaCl2, 1 mM Thiamine, 0.1 volume of a solution containing 0.01% (w/v) each of 18 amino acids (less Trp and Leu), 40 μg/mL Leu, 40 μg/mL Trp, 100 μg/mL Ampicillin, and 35 μg/mL Chloramphenicol.
This culture was allowed to grow overnight at 37° C., 250 rpm. 500 mL culture containing the same ingredients was inoculated with the overnight grown 5 mL culture. This culture was then grown till the optical density (OD600) was about 0.5. […]
Unnatural Analogues of wtGBP in Response to Glucose. […] Fluorescence of the samples was then measured using a Carry Eclipse Fluorimeter.

[3] = Fluorescence response to glucose of MDCC-labeled fragment amino acids 87-271 of wtGBP
Source text: Expression and Labeling of Isolated Polypeptide Molecules. In order to obtain the gene for insertion into an expression vector, PCR amplification was employed. Primers were designed to amplify isolated polypeptide molecules of interest, e.g., polypeptide molecules of SEQ ID NOS: 1-7, and a fragment including amino acids 87-271 of SEQ ID NO: 1.
as §1

Molecule | Percent Fluorescence Quenching ([1]; Glucose 1 × 10^-1 M) [%] | Percent Fluorescence Quenching ([1]; Glucose 1 × 10^-2 M) [%] | Percent Fluorescence Quenching ([1]; Glucose 1 × 10^-3 M) [%] | Percent Fluorescence Quenching ([1]; Glucose 1 × 10^-4 M) [%] | Percent Fluorescence Quenching ([1]; Glucose 1 × 10^-5 M) [%] | Percent Fluorescence Quenching ([1]; Glucose 1 × 10^-6 M) [%] | Change in fluorescence intensity with increasing concentrations of glucose [2] | also measured
tGBP1: fragment of wtGBP from E. coli including amino acids 14-296 of SEQ ID NO: 1 | 20.37 | 14.61 | 7.5538 | 2.433 | 2.908 | −0.09539 |  | 
SEQ ID NO: 3, where all natural tryptophans are replaced with 5-fluorotryptophans: unnatural analogue fragment of wtGBP, MDCC labeled (protein, all Trp to 5-fluorotryptophan; MDCC label; E. Coli, unnatural analogue fragment of wtGBP, MDCC labeled) DNFMSVVRKAIEQDAKAAPDVQLLMNDSQNDQSKQNDQIDVLLAKGVKALAINLVDPAAAGTVIEKARGQNVPVVFFNKEPSRKALDSYDKAYYVGTDSKESGIIQGDLIAKHWAANQGWDLNKDGQIQFVLLKGEPGHPDAEARTTYVIKELNDKGIKTEQLQLDTAMWDTAQAKDKMDAWLSGPNANKIEVVIANNDAMAMGAVEALKAHNKSSIPVFGVDALPEALALVKSGALAGTVLN |  |  |  |  |  |  | dose-dependent change in fluorescence intensities | 
tGBP2: fragment of wtGBP from E. coli including amino acids 14-256 of SEQ ID NO: 1 (protein, E. Coli) DNFMSVVRKAIEQDAKAAPDVQLLMNDSQNDQSKQNDQIDVLLAKGVKALAINLVDPAAAGTVIEKARGQNVPVVFFNKEPSRKALDSYDKAYYVGTDSKESGIIQGDLIAKHWAANQGWDLNKDGQIQFVLLKGEPGHPDAEARTTYVIKELNDKGIKTEQLQLDTAMWDTAQAKDKMDAWLSGPNANKIEVVIANNDAMAMGAVEALKAHNKSSIPVFGVDALPEALALVKSGALAGTVLN | 6.266 | 7.502 | 8.966 | 5.874 | 2.795 | 1.748 |  | 
SEQ ID NO: 3, where all natural leucines are replaced with 5,5,5-trifluoroleucines: unnatural analogue fragment of wtGBP, MDCC labeled (protein, all Leu to 5,5,5-trifluoroleucine; MDCC label; E. Coli, unnatural analogue fragment of wtGBP, MDCC labeled) DNFMSVVRKAIEQDAKAAPDVQLLMNDSQNDQSKQNDQIDVLLAKGVKALAINLVDPAAAGTVIEKARGQNVPVVFFNKEPSRKALDSYDKAYYVGTDSKESGIIQGDLIAKHWAANQGWDLNKDGQIQFVLLKGEPGHPDAEARTTYVIKELNDKGIKTEQLQLDTAMWDTAQAKDKMDAWLSGPNANKIEVVIANNDAMAMGAVEALKAHNKSSIPVFGVDALPEALALVKSGALAGTVLN |  |  |  |  |  |  | dose-dependent change in fluorescence intensities | 
fragment containing amino acids 87-271: fragment containing amino acids 87-271 of wtGBP from E. coli (SEQ ID NO: 1) (protein, E. Coli) VVFFNKEPSRKALDSYDKAYYVGTDSKESGIIQGDLIAKHWAANQGWDLNKDGQIQFVLLKGEPGCPDAEARTTYVIKELNDKGIKTEQLQLDTAMWDTAQAKDKMDAWLSGPNANKIEVVIANNDAMAMGAVEALKAHNKSSIPVFGVDALPEALALVKSGALAGTVLNDANNQAKATFDLAKN |  |  |  |  |  |  |  | Fluorescence Intensity (AVG) ([3]; Glucose Concentration 0 M): 485.282; Fluorescence Intensity (AVG) ([3]; Glucose Concentration 1.00E-03 M): 468.792; Fluorescence Intensity (AVG) ([3]; Glucose Concentration 1.00E-04 M): 467.383; Fluorescence Intensity (AVG) ([3]; Glucose Concentration 1.00E-05 M): 478.877; Fluorescence Intensity (AVG) ([3]; Glucose Concentration 1.00E-06 M): 497.146; Fluorescence Intensity (AVG) ([3]; Glucose Concentration 1.00E-07 M): 463.041; Fluorescence Intensity (AVG) ([3]; Glucose Concentration 1.00E-08 M): 442.682; Response to glucose (trend of fluorescence) ([3]; glucose 0 to 1.00E-03 M): large error and no clear trend in response to glucose
